In the supplement of paper PMC9112550, “Optimization of the antimicrobial peptide Bac7 by deep mutational scanning” (BMC Biology, 2022):

Test system: Escherichia coli TOP10
Assay: shrunken log2 fold change of peptide-encoding DNA abundance (4.5 h post-induction vs induction); higher = less antimicrobial activity (less host growth inhibition)
Conditions: time post-induction: 4.5 h; library: site-saturation at positions 5, 18, 19, 20
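Note: peptides expressed intracellularly from a pBAD plasmid library in pooled LB shake-flask culture, induced with 0.3% L-arabinose, DNA abundance read by NGS, three biological replicates, DESeq2 with apeglm shrinkage.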

Sequence | shrunken log2 fold change
RRIRARPPRLPRPRPRPAAAPRP | 1.11
RRIRARPPRLPRPRPRPACGPRP | 0.582
RRIRARPPRLPRPRPRPADCPRP | 0.203
RRIRARPPRLPRPRPRPADIPRP | -0.245
RRIRARPPRLPRPRPRPADSPRP | 0.00021
RRIRARPPRLPRPRPRPAEDPRP | 1.19
RRIRARPPRLPRPRPRPAEIPRP | 0.233
RRIRARPPRLPRPRPRPAEKPRP | -0.0197
RRIRARPPRLPRPRPRPAFFPRP | 0.479
RRIRARPPRLPRPRPRPAFLPRP | 0.486
RRIRARPPRLPRPRPRPAGLPRP | 0.387
RRIRARPPRLPRPRPRPAGQPRP | 0.143
RRIRARPPRLPRPRPRPAHVPRP | 0.0804
RRIRARPPRLPRPRPRPAICPRP | 0.252
RRIRARPPRLPRPRPRPAIKPRP | 0.206
RRIRARPPRLPRPRPRPAKMPRP | 0.463
RRIRARPPRLPRPRPRPALCPRP | 0.637
RRIRARPPRLPRPRPRPAMDPRP | 0.568
RRIRARPPRLPRPRPRPANDPRP | 0.0448
RRIRARPPRLPRPRPRPANKPRP | 0.0442
RRIRARPPRLPRPRPRPAQDPRP | 0.232
RRIRARPPRLPRPRPRPAQQPRP | 0.156
RRIRARPPRLPRPRPRPARCPRP | 0.331
RRIRARPPRLPRPRPRPARHPRP | 0.424
RRIRARPPRLPRPRPRPARLPRP | 0.582
RRIRARPPRLPRPRPRPASHPRP | 2.2
RRIRARPPRLPRPRPRPASQPRP | 0.445

Sequence | shrunken log2 fold change
RRIRARPPRLPRPRPRPASVPRP | 0.261
RRIRARPPRLPRPRPRPATWPRP | 0.37
RRIRARPPRLPRPRPRPAWLPRP | 0.597
RRIRARPPRLPRPRPRPAWYPRP | 0.0311
RRIRARPPRLPRPRPRPAYFPRP | 0.0133
RRIRARPPRLPRPRPRPAYPPRP | 0.106
RRIRARPPRLPRPRPRPAYSPRP | -0.0547
RRIRARPPRLPRPRPRPCAYPRP | -0.399
RRIRARPPRLPRPRPRPCCVPRP | 0.559
RRIRARPPRLPRPRPRPCDMPRP | 0.208
RRIRARPPRLPRPRPRPCFLPRP | -0.24
RRIRARPPRLPRPRPRPCGEPRP | -0.00932
RRIRARPPRLPRPRPRPCGTPRP | 0.475
RRIRARPPRLPRPRPRPCHYPRP | -0.00197
RRIRARPPRLPRPRPRPCLMPRP | -0.0504
RRIRARPPRLPRPRPRPCMFPRP | 0.0445
RRIRARPPRLPRPRPRPCMIPRP | -0.261
RRIRARPPRLPRPRPRPCPCPRP | -0.0932
RRIRARPPRLPRPRPRPCPIPRP | -0.244
RRIRARPPRLPRPRPRPCPWPRP | -0.0222
RRIRARPPRLPRPRPRPCQDPRP | -0.163
RRIRARPPRLPRPRPRPCQEPRP | 0.094
RRIRARPPRLPRPRPRPCRFPRP | 0.0212
RRIRARPPRLPRPRPRPCRTPRP | 0.0201
RRIRARPPRLPRPRPRPCSFPRP | 0.134
RRIRARPPRLPRPRPRPCSPPRP | -0.0746
RRIRARPPRLPRPRPRPCSRPRP | 0.21
